# Source: US6723697B2, “IL-16 antagonists” (Research Corporation Technologies, Inc., priority 1999, dated 2004)
# T1: IL-16 (Mus musculus, UniProt O54824)
# T1 construct: polyhistidine fusion protein containing the 119 C-terminal residues encoded by the previously reported murine cDNA; polyhistidine (cleaved yes); made in house
# T1 sequence (O54824 1204-1322): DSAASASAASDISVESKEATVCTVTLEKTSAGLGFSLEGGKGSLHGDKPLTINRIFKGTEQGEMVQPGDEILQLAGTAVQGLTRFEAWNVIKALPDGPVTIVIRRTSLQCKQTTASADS
# T2: rIL-16 (Mus musculus, UniProt O54824)
# T2 construct: polyhistidine fusion protein containing the 119 C-terminal residues encoded by the previously reported murine cDNA; polyhistidine (cleaved yes); made in house; host or cells: Escherichia coli strain HMS 174, vector pET16b
# T2 sequence (O54824 1204-1322): T1 sequence (O54824 1204-1322)
# T3: rIL-16 / GST-murine D3D4 fusion protein (Mus musculus, UniProt O54824)
# T3 construct: murine IL-16 cDNA construct in pET-16b expressing the C-terminal 119 amino acids of IL-16; polyhistidine (pET-16b vector); made in house; host or cells: IL-16: coupled in vitro transcription-translation (TNT T7, Promega); GST-D3D4: E. coli, vector pGEX-5X.1
# T3 sequence (O54824 1205-1322 limits assumed): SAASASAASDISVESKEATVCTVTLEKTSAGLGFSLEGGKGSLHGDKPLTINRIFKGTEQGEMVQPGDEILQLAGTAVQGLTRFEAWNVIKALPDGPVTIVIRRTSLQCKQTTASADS
# T4: murine rIL-16 (Mus musculus, UniProt O54824)
# T4 construct: polyhistidine fusion protein containing the 119 C-terminal residues encoded by the previously reported murine cDNA; polyhistidine (cleaved yes); made in house; host or cells: Escherichia coli strain HMS 174, vector pET16b
# T4 sequence (O54824 1204-1322): T1 sequence (O54824 1204-1322)
# B1: NLTCEVWGPTSPKLMLSLKLENKEAKVSKREKAVWVLNPEAGMWQCLISDSGQVLLESNIKVLPTWSTPVQPM (peptide)
# chain: NLTCEVWGPTSPKLMLSLKLENKEAKVSKREKAVWVLNPEAGMWQCLISDSGQVLLESNIKVLPTWSTPVQPM
# modifications: OTHER INFORMATION: Description of Artificial Sequence:IL-16 antagonist peptide
# notes: human CD4 D4 with Isoleucine substituted at position 349
# Experiments:
# [1] = molecular target: T1, IL-16; assay: IL-16-induced migration of human T-cells; type: cell-based; details: for inhibition of IL-16-mediated biological activity (migration of human T-cells): concentration not given; for effect on IL-16-induced migration of human T-cells: any concentration
# [2] = molecular target: T2, rIL-16; assay: IL-2R (CD25) induction on rIL-16-stimulated murine splenocytes, flow cytometry; type: cell-based; details: for % IL-2R+ CELLS: IL-16 + peptide, concentration not given (10^-6 M or 10^-7 M)
# Experimental: Induction of IL-2R (CD25) on rIL-16-stimulated murine splenocytes was detected by staining with FITC-conjugated anti-mouse IL-2R Ab (PharMingen). Cells were fixed with 10% formalin and stored at 4° C. in the dark before analysis with a Becton Dickinson FACScan 440 flow cytometer. The % IL-2R^+ cells was determined by subtracting the % isotype control positive from the total % positive events.
# Peptides A (SEQ ID NO:15) and C (SEQ ID NO:19) were inhibitory at 10^−7 M, but not 10^−6 M. The negative control peptide D (SEQ ID NO:20) (10^−6 M) had no effect on rIL-16-stimulated IL-2R expression.
# Murine splenocytes were incubated in control buffer, rIL-16 alone, or rIL-16 plus the indicated peptide. IL-2R expression was determined by flow cytometry using FITC-conjugated anti-IL-2R antibody. The % IL-2R^+ was determined by subtracting the FITC-conjugated isotype control antibody binding from the FITC-conjugated anti-IL-2R antibody binding. Isotype control antibody binding ranged from 1% to 4%.
# [3] = molecular target: T3, rIL-16 / GST-murine D3D4 fusion protein; assay: in vitro binding of 35S-labeled murine rIL-16 to GST-murine D3D4 fusion protein; details: each peptide 10^-5 M, 10 ug/ml
# Experimental: Complexes were isolated by centrifugation, then bound rIL-16 was released by boiling in SDS-PAGE buffer, resolved by SDS-PAGE, and detected by autoradiography. Specificity of the interaction between rIL-16 and D3D4 was assessed by competition with an excess of unlabeled rIL-16. ^35S-labeled rIL-16 incubated with GST (lane 1); ^35S-labeled rIL-16 incubated with GST-D3D4 (lane 2); ^35S-labeled rIL-16 plus excess unlabelled rIL-16 incubated with GST-D3D4 (lane 3); ^35S-labeled rIL-16 plus10 ug/ml peptide A (lane 4); ^35S-labeled rIL-16 plus 10 ug/ml peptide B (lane 5); ^35S-labeled rIL-16 plus 10 ug/ml peptide C (lane 6); ); ^35S-labeled rIL-16 plus 10 ug/ml peptide A and peptide B (lane 7). The arrow indicates the position of IL-16 on the gel. The identity of this band was re-confirmed by immunoblotting with anti-IL-16 antibody.
# Radiolabeled murine IL-16 was prepared by in vitro translation and transcription (TNT T7, Promega) of a murine IL-16 cDNA construct in pET-16b expressing the C-terminal 119 amino acids of IL-16. Each coupled transcription-translation reaction was conducted in medium supplemented with [^35S]methionine according to the manufacturer's instructions.
# A glutathione-S-transferase (GST)-murine D3D4 fusion protein was produced by subcloning the murine D3D4 domain cDNA sequences encoding the CD4 protein open reading frame from Phe^182 to Phe^372 into pGEX-5X.1 (Pharmacia). The GST-D3D4 fusion protein was purified according to the Pharmacia GST-fusion protein purification protocol using glutathione-conjugated Sepharose 4B beads in the presence of 2 mM dTT. […]
# To investigate IL-16 interaction with the D3D4 of CD4, the GST-D3D4 fusion protein, or GST alone, was bound to the glutathione-conjugated Sepharose 4B beads. […] The GST-D3D4 or GST proteins were released from the beads by boiling in SDS gel loading buffer, and the supernatant was analyzed by 12% SDS-polyacrylamide gel electrophoresis (SDS-PAGE). The presence of ^35S-labeled mrIL16 was detected by autoradiography of the dried gel. […]
# [4] = molecular target: T4, murine rIL-16; assay: murine rIL-16-stimulated murine splenocyte migration, modified Boyden chamber; type: cell-based; details: rIL-16 10^-9 M; for IL-16-inhibitory activity (block of murine rIL-16-stimulated murine splenocyte migration): peptide concentration not given
# Experimental: (§1) Cell migration was assessed using a modified Boyden chamber. […] Cell migration is expressed as the mean % control migration.
# (§2) Results from multiple experiments were analyzed using Student's t test for paired variables, and Tukey's test for multiple variables. A P value<0.05 was considered significant.
# Peptide B (aa 341-352) includes the sequence WQCLLS (residues 344-349, SEQ ID NO:4) which is 100% conserved in all the species examined. Peptide A (aa 327-338) and peptide C (aa 351-362) correspond to the N-terminal and C-terminal flanks of peptide B, respectively. A random scrambled 12-residue peptide (LSKQKMVSREGT) designated peptide D (SEQ ID NO:20) was used a negative control for nonspecific effects of peptide administration on splenocyte motility. Criteria for the design of peptide D included overall hydrophilicity, neutral charge and no cysteine residues (to prevent possible dimer formation).
# Murine spleens were harvested from healthy 8-week male BALB/c mice (Jackson Laboratory). Splenocytes were isolated by grinding spleens between fiysted slides in M199 culture medium (M. A. Bioproducts), supplemented with 0.4% bovine serum albumin, 22 mM HEPES buffer, 100 with U/ml of penicillin, 100 μg/ml streptomycin (M199-HPS). Cells were washed and erytbrocytes were lysed in Gey's solution. Splenocytes were washed twice in M199, and resuspended to a final concentration of 2×10^6 cells/ml in RPMI1640 medium (BioWhittaker) supplemented with 10% FBS, 100 U/ml of penicillin and 100 μg/ml of streptomycin. By flow cytometry, 25% of the isolated splenocytes within the lymphocyte-cloud were CD4^+.
# Recombinant murine IL-16 was produced in Escherichia coli (strain HMS 174; Novagen) as a polyhistidine fusion protein containing the 119 C-terminal residues encoded by the previously reported murine cDNA (Keane et al., (1998) J. Immunol. 160: 5945-5954), using the bacterial expression vector pET16b (Novagen). The recombinant product corresponds to the secreted form of natural murine IL-16 following cleavage by caspase-3 (Zhang et al. (1998) J. Biol. Chem. 273:1144-1149). The rIL-16 was purified by metal chelation chromatography, and the polyhistidine tag was cleaved with factor Xa (New England Biolabs).
# [5] = molecular target: T4, murine rIL-16; assay: IL-16-stimulated T-lymphocyte migration, human CD4 D4 point mutants; type: cell-based; details: human CD4 D4 wild type or point mutant, rIL-16 10^-9 M
# Experimental: Point mutations at Leu 348 and Leu 349 in human CD4 were prepared as follows.
# Initially 100 ng of wild type human CD4 cDNA (Richard Axel, Columbia University, N.Y.) contained within the mammalian expression vector pcDNA3.1(−) (Invitrogen, Carlsbad, Calif.) was subjected to the polymerase chain reaction (PCR) in the presence of 125 ng of each set of primer pairs. PCR conditions were as follows:
# The time for the elongation step varied according to the relationship of 2 minutes per kilobase of plasmid DNA length. The product was then subjected to restriction digestion with the enzyme Dpn for 1 h. at 37° C. Dpn is specific for methylated nucleotides and therefore will only cut the original wide type CD4-plasmid DNA. The transformation reaction required the addition of 1 μl of the digest to 50 μl of Epicurean Blue Eschericia coli which was incubated on ice for 30 min. and finally heat shocked 42° C., 45 sec to seal the supercompent bacteria. The resultant bacteria culture was selected on ampicillin plates and sequenced to confirm mutagenesis.
# as §1, §2
# (FIGS. 10A and 10B). […] (FIGS. 11A and 11B).
# [6] = first line of the peptide's pair
# [7] = second line of the peptide's pair
molecule,measurement,setting,value
DSGQVLLE (OTHER INFORMATION: Description of Artificial Sequence:IL-16 antagonist peptide) [aa 351-358 of human CD4],inhibition of IL-16-mediated biological activity (migration of human T-cells),[1],failed to inhibit
"GDKVKMDSRIQV [peptide C, 12-residue peptide, aa 351-362 of mouse CD4 D4]",% IL-2R+ CELLS,[2]; [6],20%
same,% IL-2R+ CELLS,[2]; [7],35%
same,inhibition of IL-16-stimulated induction of IL-2R,[2]; peptide 10^-7 M,inhibitory
same,IL-16 binding to GST-D3D4 in the presence of peptide,[3],failed to reduce IL-16 binding
same,inhibition of rIL-16-induced splenocyte migration,[4]; peptide 10^-6 M,inhibit
same,IL-16-inhibitory activity (block of murine rIL-16-stimulated murine splenocyte migration),[4],IL-16-inhibitory activity
GMWQCLLS (OTHER INFORMATION: Description of Artificial Sequence:IL-16 antagonist peptide) [aa 343-350 of human CD4],inhibition of IL-16-mediated biological activity (migration of human T-cells),[1],inhibited all
GMWQCLLSDSGQVLLE (OTHER INFORMATION: Description of Artificial Sequence:IL-16 antagonist peptide) [aa 343-358 of human CD4 D4],concentration at which maximal inhibition was achieved,"[1]; dose curve, IL-16-induced migration of human T-cells",≥ 10 µg/mL
same,block of IL-16-induced migration of human T-cells,[1]; peptide 10^-10 M,blocked all
KVSKREKAVWVLNPEA (OTHER INFORMATION: Description of Artificial Sequence:IL-16 antagonist peptide) [16-mer of human CD4 D4],effect on IL-16-induced migration of human T-cells,[1],failed to effect
"TGLWQCLLSEGD (OTHER INFORMATION: Description of Artificial Sequence:IL-16 antagonist peptide) [peptide B, 12-residue peptide, aa 341-352 of mouse CD4 D4]",% IL-2R+ CELLS,[2]; [6],22%
same,% IL-2R+ CELLS,[2]; [7],26%
same,inhibition of IL-16-stimulated induction of IL-2R,[2]; peptide 10^-6 M,completely inhibited
same,inhibition of IL-16-stimulated induction of IL-2R,[2]; peptide 10^-7 M,completely inhibited
same,IL-16 binding to GST-D3D4 in the presence of peptide,[3],reduced to background
same,IL-16-inhibitory activity (block of murine rIL-16-stimulated murine splenocyte migration),[4],IL-16-inhibitory activity
TSPKLMLSLKLENKEA (OTHER INFORMATION: Description of Artificial Sequence:IL-16 antagonist peptide) [16-mer of human CD4 D4],effect on IL-16-induced migration of human T-cells,[1],failed to effect
B1,inhibition of IL-16-stimulated T-lymphocyte migration,[5],maintained partial ability to inhibit
same,inhibition of IL-16-stimulated T-lymphocyte migration,[5]; listed as Leucine 349 was conservatively substituted with Isoleucine,Partial inhibition
